# From the nanobody polyreactivity screen of Harvey et al. (2022)
# Test: yeast display, Sf9 membrane polyspecificity reagent, FACS + sequencing; frameworks hold sequencing errors
# Procedure, shortened: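 Polyreactivity labels are assigned by the sorting gate from which each nanobody was recovered. The gates were low and high (top ~1%), set on anti-HA fluorescence for expression and streptavidin fluorescence for reagent binding. Before sorting, galactose-induced (36–48 hours) yeast display cells were stained for 1 hour at 4 °C with 10% biotinylated, detergent-solubilized Sf9 membrane reagent.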
sequence,measurement,value
QVQLVESGGGLVQAGGSLRLSCAASGIIFDYNAMGWYRPAPGKERELVAAITSTDNTNYADSVKGRFTISRDNAKNTVYLQMNCLKPEDTAVYYCNTDYWLSVVYAMDYWGQGTQVTVSS,polyreactivity (PSR sort gate),low polyreactivity
QVQLVESGGGLVQAGGSLRLSCAASGRIFIGYAMGWYRQAPGKERELVAAISRSGGSTYYADSVKGRFTISRDNAKYTVYLQMNSLKPEDTAVYYCAASPPFGYYYWGQGTQVTVSS,polyreactivity (PSR sort gate),high polyreactivity
QVLLVESGGGLVQAGGSLRLSCAASGSTFPLYAMGWYRQAPGTERELVAAITSGGGNTYYADSVMGRFTISRDKAQNTVYLQMNSLKPEDTAVYYCAAVGGYKTYYSYEYDYWGQGTQVTVSS,polyreactivity (PSR sort gate),low polyreactivity
QVQLVESGGGLVQAGGSLRLSCAASGIIFDYYAMGWYRQAPGKERELVAAINRNGGTTYYADSVKGRFTISRDNAKNSVYLQMNSLKPEDTAVYYCAAVDFGWITYYYWGQGTQVTVAS,polyreactivity (PSR sort gate),high polyreactivity
QVQLVESGGGLVQAGGSLRLSCAPSGLTFVGYAMGWYRQAPGKERELVAAISGVGTTNYADSVKGRFTISRDNAKNTVYLQMNSLKPEDTAVYYCATAPYPVPYRLYDYWGQGTQVTVSS,polyreactivity (PSR sort gate),low polyreactivity
QVQLVESGGGLVQAGGSLRLSCAASGRTFVTNAMGWYRQAPGKERELVAAISSSGGSTYYADSVKGRFTISRDNAKNTVFLQMNSLKPEDTAVYYCAVGGQTKGQYDYWGQGTQVTVSS,polyreactivity (PSR sort gate),low polyreactivity
QVQLVESGGGLVQAGGSIRLSCAASGSIFGGYDMGWYRQAPGKERELVSAIDADAGSTYYADSVKGRFTISRDNAKNTVYLQMYSLKPEDTSDDYCGAESYPYFITLYVFTLYGYWGQGTQVTVAS,polyreactivity (PSR sort gate),low polyreactivity
QVQLVESGGGLVQAGGSLRLSCAASGRIFGVNAMGWYRQAPGKERELVAAITWSGGRTYYADSVKGRFTISRDNAKNTVFLLMNSMKQEDTAVYYCNTGLSGRRYGFGLSFCMDYWGQGTQVTVSS,polyreactivity (PSR sort gate),low polyreactivity
QVQLVESGGGLVQAGGSLRLSCAASGTFAGNAMGWYRQAPGKERELVAAITTGGRTYYADSVKGRFTISRDNAKNTVYLQMNSLKPEDTAVYYCAADRIRDLEFDYWGQGTQVTVSS,polyreactivity (PSR sort gate),low polyreactivity
QVQLVESGGGLVQAGGSLRLSCAASGSIFVSYAMGWYRQAPGKERELVAAITWSGGSTYYADSVKGRFTISRDNAKNTVYLQMKSLKPEDTAVYYCAADEPYPTAYEYWGQGTQVTVSS,polyreactivity (PSR sort gate),low polyreactivity
QVQLVESGGGFVQAGGSLRLSCAASGGIFDVYAMGWYRQAPGKERELVAAISENGGSTYYADSVKGRFTISRDNAKNTVYLQMNSLKPEDTAVYYCAADDVSLSVFSYWAWYDYWGQGSQVTVSS,polyreactivity (PSR sort gate),low polyreactivity
QVQLVESGGGLVQAGGSLLLSCAASGLTFYLYAMGWYRQAPGKERELVAPISRRGGSTYYADSVKGRFTISRDNAKNTVYFQMKSLKPEYTAVYYCAGAFYSQTDYKFYYWGQGTQVTVSS,polyreactivity (PSR sort gate),high polyreactivity
QVQLVESGGGLVQAGGSLRLSCAASGRIFGLYAMGWYRQAPGKERELVAAIRGRGGRTSYADSVKGRFTISRDNAKNTVYLQMNSLKPEDTAVYYCNAELYPWPGVVRYNYWGQGTQVTVSS,polyreactivity (PSR sort gate),high polyreactivity
QVQLVESGGGLVQAGGCLRLSCAASGNTFYGYAMGWYRQAPGKERELVASITLSGDSTYYADSVKGRFTISRDNAMNTVYLQMNSLKPEYTAVYYCAGVYTYPLGYYHYTYDYWGQGTQVTVSS,polyreactivity (PSR sort gate),low polyreactivity
QVQLVESGGGIVQAGGSLRLSCAASGSIFDSYTMGWYRQAPGKERELVATINRSGGSTYYADSVKGRFTISRDTAKNTVYLQMNSLKPEDTAVYYCATVYPYTPYSSWRSKYDYWGQGTQVTVSS,polyreactivity (PSR sort gate),low polyreactivity
QVQLVESGGGLVQAGGSLRLSCAASGRIFGVYAMGWYRQAPGKERELVASITWRGGSTYYADSVKGRFTISRDNAKNTVYLQMNSLKPEDTAVYYCAAAYWYAYEYWGQGTQVTVSS,polyreactivity (PSR sort gate),high polyreactivity
QVQLQASGVGLVQSGGSLRLSCASRGTNFTARFMGWYRQAPGKERELVATITDGGNTNHADRVKGRFTISRDNAKNTVYLQMNSLKPEDAAVYYCAAGEVDNDTLLYWGQGSQVTVSS,polyreactivity (PSR sort gate),low polyreactivity
QVQLVESGGGLVQAGGSLRLSCAATGSIFPPYGMGWYRRAPGKERELVAVITRSGGSTYYADSVKGRFTISRDNAKNTVYLQMNSLKPEDTAVYYCNVDSTTTFVYVVVSVVYEYDYWGQGTQVTVSS,polyreactivity (PSR sort gate),low polyreactivity
QVQLVESGGGLDQAGGSLRLSCAASGRTLSRYAMGWYRQAPGKERELVASMSWSGGRTYYADSVKGRFTISRDNAKNTVYLEMNSLKPEDTAVYYCAAVYVTAPFDYWGQGTQVTVSS,polyreactivity (PSR sort gate),low polyreactivity
QVQLVESGGGLVQAGGSLRLSCAASGLTFWRYAMGWYRQAPGKERELVAGISSSTGSTYYADSVKGRFTISRDNAKNTVYLQMNSLKPEDTAVYYCNAYVRRIVRSYYWGQGTQVTVSS,polyreactivity (PSR sort gate),high polyreactivity
QVQLVESGGGLVQAGGSLRLFCAASGSTFISYAMGWYRQAPGKERELVAAISSSGGSTYYAYSVKGRFTISRDNAKNNVYLQMNSLKPEDTAVYYCAAEAVYYRSWRYYYCGQGTQVTVSS,polyreactivity (PSR sort gate),high polyreactivity
QVQLQESGGGLVQAGGSLRPSCAASGSISDGVPKGWYRQAPGEERELVATTVLGATTNYADSVKGRFTISRGNAKNTVYLQMNSLKPEETAVYYCAAPLRYDKGFSYWGQGTQVTVSS,polyreactivity (PSR sort gate),low polyreactivity
